Test results published in US20220143024A1, “METHODS OF USING IMIPRIDONES” (Board of Regents, The University of Texas System, priority 2019, published 2022).

How the values were obtained:
Assay in all cases: BioID-MS +ONC201
[1] = target: IARS2 (human) (UniProt Q9NSE4)
[2] = target: SLIRP (human) (UniProt Q9GZT3)
[3] = target: NMNAT3 (human) (UniProt Q96T66)
[4] = target: POLRMT (human) (UniProt O00411)
[5] = target: ABCB10 (human) (UniProt Q9NRK6)
[6] = target: COQ8A (human) (UniProt Q8NI60)
[7] = target: NUDT1 (human) (UniProt P36639)
[8] = target: TAC01 (human) (UniProt Q9BSH4)
[9] = target: VWA8 (human) (UniProt A3KMH1)
Sequence of VWA8 (human) (A3KMH1 29-1905 limits assumed): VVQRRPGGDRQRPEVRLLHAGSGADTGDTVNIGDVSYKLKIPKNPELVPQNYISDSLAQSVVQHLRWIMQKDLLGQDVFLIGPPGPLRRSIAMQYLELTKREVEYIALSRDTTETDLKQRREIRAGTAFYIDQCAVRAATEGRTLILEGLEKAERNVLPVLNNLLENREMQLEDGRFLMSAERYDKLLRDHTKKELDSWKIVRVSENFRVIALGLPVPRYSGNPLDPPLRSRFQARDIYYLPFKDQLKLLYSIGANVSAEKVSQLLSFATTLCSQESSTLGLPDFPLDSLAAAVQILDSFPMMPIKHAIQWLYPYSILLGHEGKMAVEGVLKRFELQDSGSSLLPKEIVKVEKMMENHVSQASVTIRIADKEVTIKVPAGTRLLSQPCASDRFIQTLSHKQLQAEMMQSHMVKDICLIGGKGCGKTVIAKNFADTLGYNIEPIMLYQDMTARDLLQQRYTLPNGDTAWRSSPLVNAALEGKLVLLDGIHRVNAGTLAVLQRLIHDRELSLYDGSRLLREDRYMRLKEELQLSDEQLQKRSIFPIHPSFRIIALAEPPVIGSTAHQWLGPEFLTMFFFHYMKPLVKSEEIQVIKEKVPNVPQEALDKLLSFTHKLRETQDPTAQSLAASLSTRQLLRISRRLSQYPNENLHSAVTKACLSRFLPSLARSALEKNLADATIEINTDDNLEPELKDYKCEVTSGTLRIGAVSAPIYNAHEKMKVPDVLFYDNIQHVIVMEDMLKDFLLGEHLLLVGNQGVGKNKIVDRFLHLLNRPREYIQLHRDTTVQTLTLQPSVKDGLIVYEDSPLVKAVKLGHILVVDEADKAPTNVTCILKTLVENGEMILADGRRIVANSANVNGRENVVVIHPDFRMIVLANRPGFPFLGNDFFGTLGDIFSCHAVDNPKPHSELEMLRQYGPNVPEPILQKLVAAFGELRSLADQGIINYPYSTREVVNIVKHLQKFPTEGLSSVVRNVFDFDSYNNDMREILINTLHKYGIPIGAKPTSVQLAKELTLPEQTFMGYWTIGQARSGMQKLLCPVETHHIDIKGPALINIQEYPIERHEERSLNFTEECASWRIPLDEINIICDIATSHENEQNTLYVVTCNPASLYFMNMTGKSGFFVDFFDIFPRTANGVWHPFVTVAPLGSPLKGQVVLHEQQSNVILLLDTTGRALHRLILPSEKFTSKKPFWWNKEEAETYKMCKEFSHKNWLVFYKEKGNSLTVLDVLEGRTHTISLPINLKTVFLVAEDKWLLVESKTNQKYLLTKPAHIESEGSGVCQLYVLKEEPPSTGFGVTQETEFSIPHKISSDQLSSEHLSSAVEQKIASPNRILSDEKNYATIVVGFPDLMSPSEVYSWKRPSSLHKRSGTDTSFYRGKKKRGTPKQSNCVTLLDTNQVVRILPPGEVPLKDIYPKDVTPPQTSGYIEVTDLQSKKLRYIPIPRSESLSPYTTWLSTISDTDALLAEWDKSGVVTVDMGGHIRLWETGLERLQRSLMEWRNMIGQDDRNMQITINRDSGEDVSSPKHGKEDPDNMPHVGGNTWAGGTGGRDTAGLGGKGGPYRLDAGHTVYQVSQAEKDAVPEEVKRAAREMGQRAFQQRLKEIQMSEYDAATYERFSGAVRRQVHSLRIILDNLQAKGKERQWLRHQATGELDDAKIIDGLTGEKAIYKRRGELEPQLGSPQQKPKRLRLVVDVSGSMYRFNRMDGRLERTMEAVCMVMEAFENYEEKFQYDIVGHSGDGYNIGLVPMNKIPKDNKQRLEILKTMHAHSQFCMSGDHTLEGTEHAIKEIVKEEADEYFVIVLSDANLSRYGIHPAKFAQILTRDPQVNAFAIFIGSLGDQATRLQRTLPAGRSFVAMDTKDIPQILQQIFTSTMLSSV

[10] = target: MTIF2 (human) (UniProt P46199)
[11] = target: XPNPEP3 (human) (UniProt Q9NQH7)
[12] = target: ACO2 (human) (UniProt Q99798)
Sequence of ACO2 (human) (Q99798 28-780 limits assumed): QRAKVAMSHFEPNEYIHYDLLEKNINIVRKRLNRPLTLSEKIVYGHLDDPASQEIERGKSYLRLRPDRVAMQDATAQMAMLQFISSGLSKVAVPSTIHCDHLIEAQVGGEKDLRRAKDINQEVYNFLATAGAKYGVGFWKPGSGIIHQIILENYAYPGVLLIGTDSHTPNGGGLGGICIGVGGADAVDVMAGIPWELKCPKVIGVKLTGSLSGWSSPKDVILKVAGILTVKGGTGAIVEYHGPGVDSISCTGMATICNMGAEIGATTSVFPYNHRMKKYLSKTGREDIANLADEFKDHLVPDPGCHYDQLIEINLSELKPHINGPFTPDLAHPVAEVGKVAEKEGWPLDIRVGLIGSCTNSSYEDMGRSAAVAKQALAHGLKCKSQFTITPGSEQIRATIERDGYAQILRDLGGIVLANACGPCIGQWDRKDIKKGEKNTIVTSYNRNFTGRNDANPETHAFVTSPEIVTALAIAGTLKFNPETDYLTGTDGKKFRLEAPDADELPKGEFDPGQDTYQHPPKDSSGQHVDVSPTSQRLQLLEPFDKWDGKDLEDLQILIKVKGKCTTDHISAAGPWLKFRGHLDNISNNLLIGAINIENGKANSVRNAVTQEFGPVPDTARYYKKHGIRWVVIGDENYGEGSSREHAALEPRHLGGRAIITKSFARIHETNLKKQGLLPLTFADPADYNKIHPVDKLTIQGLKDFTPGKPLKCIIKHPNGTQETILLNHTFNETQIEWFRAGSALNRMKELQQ

[13] = target: C20orf7 (human) (UniProt Q5TEU4)
[14] = target: MTPAP (human) (UniProt Q9NVV4)
[15] = target: GTPBP3 (human) (UniProt Q969Y2)
Sequence of GTPBP3 (human) (Q969Y2 21-492 limits assumed): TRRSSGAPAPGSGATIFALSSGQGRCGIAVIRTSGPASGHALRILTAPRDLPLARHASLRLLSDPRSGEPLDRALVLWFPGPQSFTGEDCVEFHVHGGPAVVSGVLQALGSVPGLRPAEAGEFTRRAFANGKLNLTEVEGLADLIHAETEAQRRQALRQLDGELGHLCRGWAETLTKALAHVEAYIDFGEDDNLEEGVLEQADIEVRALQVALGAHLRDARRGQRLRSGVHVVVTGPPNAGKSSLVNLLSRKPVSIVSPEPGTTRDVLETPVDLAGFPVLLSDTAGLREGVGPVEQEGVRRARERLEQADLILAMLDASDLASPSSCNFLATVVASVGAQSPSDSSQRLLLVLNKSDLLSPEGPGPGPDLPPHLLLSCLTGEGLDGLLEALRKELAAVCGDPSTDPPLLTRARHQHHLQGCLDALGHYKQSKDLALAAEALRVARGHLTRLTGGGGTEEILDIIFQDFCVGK

[16] = target: MDH2 (human) (UniProt P40926)
[17] = target: EFHA1 (human) (UniProt Q8IYU8)
Sequence of EFHA1 (human) (Q8IYU8 23-434 limits assumed): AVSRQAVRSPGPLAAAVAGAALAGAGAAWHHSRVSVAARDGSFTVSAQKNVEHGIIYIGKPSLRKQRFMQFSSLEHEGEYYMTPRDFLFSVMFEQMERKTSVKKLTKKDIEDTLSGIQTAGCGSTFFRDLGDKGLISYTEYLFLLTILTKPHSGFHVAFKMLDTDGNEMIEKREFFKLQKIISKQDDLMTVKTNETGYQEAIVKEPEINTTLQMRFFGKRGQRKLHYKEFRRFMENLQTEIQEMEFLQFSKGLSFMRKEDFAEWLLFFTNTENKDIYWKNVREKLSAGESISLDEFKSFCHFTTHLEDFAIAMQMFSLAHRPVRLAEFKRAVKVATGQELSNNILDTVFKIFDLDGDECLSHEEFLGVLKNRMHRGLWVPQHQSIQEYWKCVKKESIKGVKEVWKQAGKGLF

[18] = target: BCKDHA (human) (UniProt P12694)
[19] = target: GLS (human) (UniProt O94925)
[20] = target: HSD17B8 (human) (UniProt Q92506)
[21] = target: IDH3A (human) (UniProt P50213)
[22] = target: PDPR (human) (UniProt Q8NCN5)
[23] = target: COX5A (human) (UniProt P20674)
[24] = target: ALDH2 (human) (UniProt P05091)
[25] = target: MRPL14 (human) (UniProt Q6P1L8)
[26] = target: CARS2 (human) (UniProt Q9HA77)
[27] = target: MGME1 (human) (UniProt Q9BQP7)
[28] = target: MRPL48 (human) (UniProt Q96GC5)
[29] = target: MRPL19 (human) (UniProt P49406)
[30] = target: MRPL44 (human) (UniProt Q9H9J2)
[31] = target: ALDH4A1 (human) (UniProt P30038)
[32] = target: PYCR2 (human) (UniProt Q96C36)
[33] = target: BCKDHB (human) (UniProt P21953)
Sequence of BCKDHB (human) (P21953 51-392 limits assumed): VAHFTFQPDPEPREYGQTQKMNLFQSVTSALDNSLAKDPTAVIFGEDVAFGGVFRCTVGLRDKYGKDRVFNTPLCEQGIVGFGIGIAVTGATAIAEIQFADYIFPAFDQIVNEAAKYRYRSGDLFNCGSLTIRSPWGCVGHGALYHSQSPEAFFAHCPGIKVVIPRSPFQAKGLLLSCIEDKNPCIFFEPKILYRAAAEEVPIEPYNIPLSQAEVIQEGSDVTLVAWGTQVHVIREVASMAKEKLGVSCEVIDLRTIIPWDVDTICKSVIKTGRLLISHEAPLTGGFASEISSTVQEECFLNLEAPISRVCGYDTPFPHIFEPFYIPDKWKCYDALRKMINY

[34] = target: HSPA1L (human) (UniProt P34931)
[35] = target: ABHD10 (human) (UniProt Q9NUJ1)
[36] = target: PMPCA (human) (UniProt Q10713)
[37] = target: IDI1 (human) (UniProt Q13907)
[38] = target: ACAD10 (human) (UniProt Q6JQN1)
[39] = target: C2orf56 (human) (UniProt Q7L592)
[40] = target: GLRX5 (human) (UniProt Q86SX6)
[41] = target: PTPMT1 (human) (UniProt Q8WUK0)
[42] = target: ECSIT (human) (UniProt Q9BQ95)
[43] = target: MTHFD2 (human) (UniProt P13995)
[44] = target: QRSL1 (human) (UniProt Q9H0R6)
[45] = target: FASTKD5 (human) (UniProt Q7L8L6)
[46] = target: PRKCA (human) (UniProt P17252)
[47] = target: IDE (human) (UniProt P14735)
[48] = target: OGDH (human) (UniProt Q02218)
[49] = target: MRPL46 (human) (UniProt Q9H2W6)
[50] = target: ABCB7 (human) (UniProt O75027)
[51] = target: GUF1 (human) (UniProt Q8N442)

Sequence of IARS2 (human) (Q9NSE4 49-1012 limits assumed): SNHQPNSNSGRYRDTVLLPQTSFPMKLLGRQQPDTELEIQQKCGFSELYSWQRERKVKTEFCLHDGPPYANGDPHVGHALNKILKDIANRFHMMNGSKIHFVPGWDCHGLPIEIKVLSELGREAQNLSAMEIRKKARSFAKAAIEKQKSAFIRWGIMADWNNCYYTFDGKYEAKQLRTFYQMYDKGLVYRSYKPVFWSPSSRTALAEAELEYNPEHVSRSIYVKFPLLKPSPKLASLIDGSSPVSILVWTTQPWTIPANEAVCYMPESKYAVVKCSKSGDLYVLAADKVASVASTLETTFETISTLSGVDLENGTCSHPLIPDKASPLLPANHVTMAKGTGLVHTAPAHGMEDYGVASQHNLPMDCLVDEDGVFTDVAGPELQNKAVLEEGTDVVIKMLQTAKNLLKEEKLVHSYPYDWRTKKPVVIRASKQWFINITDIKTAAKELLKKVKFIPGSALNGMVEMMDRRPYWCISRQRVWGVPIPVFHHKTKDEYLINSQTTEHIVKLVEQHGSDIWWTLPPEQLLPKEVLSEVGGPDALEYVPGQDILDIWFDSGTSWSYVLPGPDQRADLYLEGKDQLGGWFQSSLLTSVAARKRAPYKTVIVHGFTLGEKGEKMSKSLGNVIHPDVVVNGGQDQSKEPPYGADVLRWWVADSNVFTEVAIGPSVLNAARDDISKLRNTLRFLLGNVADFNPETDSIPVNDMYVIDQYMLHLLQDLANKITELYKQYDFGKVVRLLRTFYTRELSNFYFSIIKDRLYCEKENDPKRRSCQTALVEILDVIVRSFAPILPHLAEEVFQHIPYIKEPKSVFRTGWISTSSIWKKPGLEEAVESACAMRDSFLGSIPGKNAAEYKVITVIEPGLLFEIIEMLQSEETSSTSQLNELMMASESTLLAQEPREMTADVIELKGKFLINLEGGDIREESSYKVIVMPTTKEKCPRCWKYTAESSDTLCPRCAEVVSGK
Sequence of NMNAT3 (human) (Q96T66 whole entry): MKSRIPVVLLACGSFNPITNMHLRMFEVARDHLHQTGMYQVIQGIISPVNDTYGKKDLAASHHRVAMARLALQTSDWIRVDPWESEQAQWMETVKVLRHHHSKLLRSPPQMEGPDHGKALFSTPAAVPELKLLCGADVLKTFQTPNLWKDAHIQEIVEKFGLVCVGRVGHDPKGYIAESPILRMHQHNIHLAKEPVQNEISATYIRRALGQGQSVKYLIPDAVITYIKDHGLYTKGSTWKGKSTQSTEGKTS

Log2 Fold change (vs control) [1]: -2.38 log2 | Log2 Fold change (vs control) [2]: -0.25 log2 | Log2 Fold change (vs control) [3]: -4 log2 | Log2 Fold change (vs control) [4]: -2.95 log2 | Log2 Fold change (vs control) [5]: -0.24 log2 | Log2 Fold change (vs control) [6]: -4.74 log2 | Log2 Fold change (vs control) [7]: -1 log2 | Log2 Fold change (vs control) [8]: -4.82 log2 | Log2 Fold change (vs control) [9]: 1.69 log2 | Log2 Fold change (vs control) [10]: -5.55 log2 | Log2 Fold change (vs control) [11]: -1.63 log2 | Log2 Fold change (vs control) [12]: -5.46 log2 | Log2 Fold change (vs control) [13]: -1.21 log2 | Log2 Fold change (vs control) [14]: -0.1 log2 | Log2 Fold change (vs control) [15]: -2.58 log2 | Log2 Fold change (vs control) [16]: -0.24 log2 | Log2 Fold change (vs control) [17]: -0.47 log2 | Log2 Fold change (vs control) [18]: -4.32 log2 | Log2 Fold change (vs control) [19]: -0.71 log2 | Log2 Fold change (vs control) [20]: -1.26 log2 | Log2 Fold change (vs control) [21]: -2 log2 | Log2 Fold change (vs control) [22]: -4.95 log2 | Log2 Fold change (vs control) [23]: -2.87 log2 | Log2 Fold change (vs control) [24]: -0.17 log2 | Log2 Fold change (vs control) [25]: -3.46 log2 | Log2 Fold change (vs control) [26]: -0.21 log2 | Log2 Fold change (vs control) [27]: 0.27 log2 | Log2 Fold change (vs control) [28]: -4.17 log2 | Log2 Fold change (vs control) [29]: -3.51 log2 | Log2 Fold change (vs control) [30]: -5.04 log2 | Log2 Fold change (vs control) [31]: -2.21 log2 | Log2 Fold change (vs control) [32]: -0.21 log2 | Log2 Fold change (vs control) [33]: -4.91 log2 | Log2 Fold change (vs control) [34]: 0.5 log2 | Log2 Fold change (vs control) [35]: -1.53 log2 | Log2 Fold change (vs control) [36]: -1.21 log2 | Log2 Fold change (vs control) [37]: -0.22 log2 | Log2 Fold change (vs control) [38]: -4.09 log2 | Log2 Fold change (vs control) [39]: -2.44 log2 | Log2 Fold change (vs control) [40]: -5.21 log2 | Log2 Fold change (vs control) [41]: -0.48 log2 | Log2 Fold change (vs control) [42]: -5.36 log2 | Log2 Fold change (vs control) [43]: -1.43 log2 | Log2 Fold change (vs control) [44]: -2.9 log2 | Log2 Fold change (vs control) [45]: -4.91 log2 | Log2 Fold change (vs control) [46]: -3.58 log2 | Log2 Fold change (vs control) [47]: -1.97 log2 | Log2 Fold change (vs control) [48]: -3.7 log2 | Log2 Fold change (vs control) [49]: -6.09 log2 | Log2 Fold change (vs control) [50]: -0.45 log2 | Log2 Fold change (vs control) [51]: -4.04 log2
Substance: FlagBirA-ClpP (WT) (from UniProt P06709 1-321; Q16740 57-277) (enzyme)
